# Experimental data published in US20220282268A1.
# Target: Hybrid Rubisco of A. thaliana S2Cr lines (1a3b mutant complemented with S2Cr) (Arabidopsis thaliana; Chlamydomonas reinhardtii) (UniProt O03042)
# Assay: cell-based or functional assay
substance,measurement,value
EPYC1-dGFP (truncated mature EPYC1 expressed from two cassettes as EPYC1::eGFP and EPYC1::tGFP),share of Rubisco in the pelleted condensate that contained C. reinhardtii SSU (Coomassie-stained gel),82%
same,"share of Rubisco localized to the condensate (immunogold TEM, polyclonal Rubisco antibody)",54%
same,"share of the C. reinhardtii SSU localized to the condensate (immunogold TEM, anti-CrRbcS2)",81%
